This series is described as follows: enzyme screen for hydrolysis/methanolysis of butyl-KLG (HPLC of products and remaining substrate). It counts as biochemical. Set-up: KLG formed / MeKLG formed / ASA formed / BuKLG (remaining substrate): unit: ppm. As to the method:
Initial enzyme screens were carried out as follows. Enzyme (typically 10 mg), aqueous buffer (typically 860 microliters (ul) or 550 ul), aqueous 0.2M CaCl2 (10 ul), methanol (typically 90 ul or 400 ul), and an aqueous solution of substrate (typically 90 ul of butyl-KLG at a typical concentration of 110,000 ppm) were added to a 2 ml polypropylene centrifuge tube. The resulting solution was vortexed briefly and placed on a shaker bath at 300 rpm at 38° C. (typically for 18 hours or more). After incubation, samples were centrifuged at 14,000 G's (14,000 times gravity) for 20 minutes to remove enzyme, sampled (300 ul), and diluted to one milliliter with distilled water. If not analyzed by HPLC within the day, samples were frozen prior to analysis.
The data were reported in terms of parts per million of KLG, MeKLG, ascorbic acid (ASA) and butyl-KLG. […] Samples labeled as "no enzyme" were controls within a given run. The controls contained substrate but no enzyme and thus represented experimental and HPLC background data.

Setting [1] is: Table 4: 38° C., 47.5 Hours, 38% Methanol-Water, 0.1M MES Buffer.
Where [2] appears, read: Table 7: 38° C., 19 Hours, 8.6% Methanol-Water, 0.1M MES.
Setting [3] is: Table 8: 38° C., 21 Hours, 8.6% Methanol-Water, 0.2 M MES.
[4] abbreviates: Table 3: 38° C., 16 Hours, 38% Methanol-Water, 0.1M MES Buffer.

B1: Mucor meihei Lipase: Mucor meihei Lipase (protein, UniProt P19515 95-363, looked up)
Lipase: SIDGGIRAATSQEINELTYYTTLSANSYCRTVIPGATWDCIHCDATEDLKIIKTWSTLIYDTNAMVARGDSEKTIYIVFRGSSSIRNWIADLTFVPVSYPPVSGTKVHKGFLDSYGEVQNELVATVLDQFKQYPSYKVAVTGHSLGGATALLCALDLYQREEGLSSSNLFLYTQGQPRVGDPAFANYVVSTGIPYRRTVNERDIVPHLPPAAFGFLHAGEEYWITDNSPETVQVCTSDLETSDCSNSIVPFTSVLDHLSYFGINTGLCT
Take B1: under setting [1], the ASA formed is reported as 108 ppm, the “BuKLG (remaining substrate)” value came to 7041 ppm, the KLG formed is reported as 54 ppm and the MeKLG formed amounted to 189 ppm. Under setting [2], the ASA formed was 156, the “BuKLG (remaining substrate)” value was 8620, the KLG formed worked out at 229 and the MeKLG formed was 278. In addition, under setting [3], the ASA formed was 54 ppm, the “BuKLG (remaining substrate)” value worked out at 7067 ppm, the KLG formed is 243 ppm and the MeKLG formed is 283 ppm.

B2: Humicola lanuginosa Lipase: Humicola lanuginosa Lipase (protein, UniProt O59952 23-291, looked up)
Lipase: EVSQDLFNQFNLFAQYSAAAYCGKNNDAPAGTNITCTGNACPEVEKADATFLYSFEDSGVGDVTGFLALDNTNKLIVLSFRGSRSIENWIGNLNFDLKEINDICSGCRGHDGFTSSWRSVADTLRQKVEDAVREHPDYRVVFTGHSLGGALATVAGADLRGNGYDIDVFSYGAPRVGNRAFAEFLTVQTGGTLYRITHTNDIVPRLPPREFGYSHSSPEYWIKSGTLVPVTRNDIVKIEGIDATGGNNQPNIPDIPAHLWYFGLIGTCL
For the molecule B2, under setting [4], the ASA formed is 6 ppm, the “BuKLG (remaining substrate)” value was found to be 10191 ppm, the KLG formed was determined as 63 ppm and the MeKLG formed is 90 ppm. Moreover, under setting [1], the ASA formed was found to be 42 ppm, the “BuKLG (remaining substrate)” value is recorded as 8017 ppm, the KLG formed stood at 129 ppm and the MeKLG formed worked out at 241 ppm. Moreover, under setting [3], the ASA formed was 10 ppm, the “BuKLG (remaining substrate)” value is on record as 7215 ppm, the KLG formed was 176 ppm and the MeKLG formed was determined as 129 ppm.

B3: Subtilisin Carlsberg: Subtilisin Carlsberg (a protease) (protein, UniProt P00780 106-379, looked up)
Subtilisin Carlsberg: AQTVPYGIPLIKADKVQAQGFKGANVKVAVLDTGIQASHPDLNVVGGASFVAGEAYNTDGNGHGTHVAGTVAALDNTTGVLGVAPSVSLYAVKVLNSSGSGSYSGIVSGIEWATTNGMDVINMSLGGASGSTAMKQAVDNAYAKGVVVVAAAGNSGSSGNTNTIGYPAKYDSVIAVGAVDSNSNRASFSSVGAELEVMAPGAGVYSTYPTNTYATLNGTSMASPHVAGAAALILSKHPNLSASQVRNRLSSTATYLGSSFYYGKGLINVEAAAQ
Regarding B3, under “Example 4: 38% methanol-water, MES, pH 5 to 5.8”, the “levels of activity / conversion of butyl-KLG” value is on record as “particularly high levels of activity”. Besides, under setting [1], the ASA formed is listed as 0 ppm, the “BuKLG (remaining substrate)” value is 0 ppm, the KLG formed is on record as 3072 ppm and the MeKLG formed is given as 47 ppm. Also, under setting [2], the ASA formed came to 0, the “BuKLG (remaining substrate)” value worked out at 4428, the KLG formed turned out to be 4463 and the MeKLG formed worked out at 93.

B4: Porcine Pancreatic Lipase: Porcine Pancreatic Lipase (protein, UniProt P00591 1-450, looked up)
Pancreatic triacylglycerol …: SEVCFPRLGCFSDDAPWAGIVQRPLKILPWSPKDVDTRFLLYTNQNQNNYQELVADPSTITNSNFRMDRKTRFIIHGFIDKGEEDWLSNICKNLFKVESVNCICVDWKGGSRTGYTQASQNIRIVGAEVAYFVEVLKSSLGYSPSNVHVIGHSLGSHAAGEAGRRTNGTIERITGLDPAEPCFQGTPELVRLDPSDAKFVDVIHTDAAPIIPNLGFGMSQTVGHLDFFPNGGKQMPGCQKNILSQIVDIDGIWEGTRDFVACNHLRSYKYYADSILNPDGFAGFPCDSYNVFTANKCFPCPSEGCPQMGHYADRFPGKTNGVSQVFYLNTGDASNFARWRYKVSVTLSGKKVTGHILVSLFGNEGNSRQYEIYKGTLQPDNTHSDEFDSDVEVGDLQKVKFIWYNNNVINPTLPRVGASKITVERNDGKVYDFCSQETVREEVLLTLNPC
For B4, the ASA formed runs as follows: under setting [4], 49 ppm; under setting [1], 222 ppm; under setting [2], 314; under setting [3], 78 ppm. Also, the “BuKLG (remaining substrate)” value is 10709 ppm under setting [4], 10899 ppm under setting [1], 7888 under setting [2] and 6860 ppm under setting [3]. Further, the KLG formed was determined as 81 ppm under setting [4], 229 ppm under setting [1], 333 under setting [2] and 303 ppm under setting [3]. Besides, the MeKLG formed is 316 ppm under setting [4], 613 ppm under setting [1], 291 under setting [2] and 320 ppm under setting [3].

B5: L-7 (Porcine pancreas): Lipase (Porcine pancreas) (protein, UniProt P00591 1-450, looked up)
Pancreatic triacylglycerol …: SEVCFPRLGCFSDDAPWAGIVQRPLKILPWSPKDVDTRFLLYTNQNQNNYQELVADPSTITNSNFRMDRKTRFIIHGFIDKGEEDWLSNICKNLFKVESVNCICVDWKGGSRTGYTQASQNIRIVGAEVAYFVEVLKSSLGYSPSNVHVIGHSLGSHAAGEAGRRTNGTIERITGLDPAEPCFQGTPELVRLDPSDAKFVDVIHTDAAPIIPNLGFGMSQTVGHLDFFPNGGKQMPGCQKNILSQIVDIDGIWEGTRDFVACNHLRSYKYYADSILNPDGFAGFPCDSYNVFTANKCFPCPSEGCPQMGHYADRFPGKTNGVSQVFYLNTGDASNFARWRYKVSVTLSGKKVTGHILVSLFGNEGNSRQYEIYKGTLQPDNTHSDEFDSDVEVGDLQKVKFIWYNNNVINPTLPRVGASKITVERNDGKVYDFCSQETVREEVLLTLNPC
Regarding B5, under setting [1], the ASA formed stood at 120 ppm, the “BuKLG (remaining substrate)” value is 5488 ppm, the KLG formed was 94 ppm and the MeKLG formed amounted to 884 ppm. In addition, under setting [2], the ASA formed is 106, the “BuKLG (remaining substrate)” value is recorded as 5392, the KLG formed was 1007 and the MeKLG formed came out at 575.

B6: Rhizoipus Delmar Lipase: Rhizoipus Delmar Lipase (protein, UniProt P61872 96-392, looked up)
Lipase: DDNLVGGMTLDLPSDAPPISLSSSTNSASDGGKVVAATTAQIQEFTKYAGIAATAYCRSVVPGNKWDCVQCQKWVPDGKIITTFTSLLSDTNGYVLRSDKQKTIYLVFRGTNSFRSAITDIVFNFSDYKPVKGAKVHAGFLSSYEQVVNDYFPVVQEQLTAHPTYKVIVTGHSLGGAQALLAGMDLYQREPRLSPKNLSIFTVGGPRVGNPTFAYYVESTGIPFQRTVHKRDIVPHVPPQSFGFLHPGVESWIKSGTSNVQICTSEIETKDCSNSIVPFTSILDHLSYFDINEGSCL
Take B6: under setting [4], the ASA formed came to 1 ppm, the “BuKLG (remaining substrate)” value was found to be 7392 ppm, the KLG formed came to 51 ppm and the MeKLG formed was determined as 99 ppm. Under setting [3], the ASA formed worked out at 0 ppm, the “BuKLG (remaining substrate)” value stood at 7097 ppm, the KLG formed turned out to be 178 ppm and the MeKLG formed came out at 0 ppm.

B7: Rhizopus Niveus Lipase: Rhizopus Niveus Lipase (protein, UniProt P61871 96-392, looked up)
Lipase: DDNLVGGMTLDLPSDAPPISLSSSTNSASDGGKVVAATTAQIQEFTKYAGIAATAYCRSVVPGNKWDCVQCQKWVPDGKIITTFTSLLSDTNGYVLRSDKQKTIYLVFRGTNSFRSAITDIVFNFSDYKPVKGAKVHAGFLSSYEQVVNDYFPVVQEQLTAHPTYKVIVTGHSLGGAQALLAGMDLYQREPRLSPKNLSIFTVGGPRVGNPTFAYYVESTGIPFQRTVHKRDIVPHVPPQSFGFLHPGVESWIKSGTSNVQICTSEIETKDCSNSIVPFTSILDHLSYFDINEGSCL
Regarding B7, under setting [4], the ASA formed stood at 17 ppm, the “BuKLG (remaining substrate)” value is on record as 10453 ppm, the KLG formed was determined as 80 ppm and the MeKLG formed turned out to be 252 ppm. Under setting [3], the ASA formed came to 61 ppm, the “BuKLG (remaining substrate)” value is 7102 ppm, the KLG formed worked out at 178 ppm and the MeKLG formed is on record as 181 ppm.

The values are drawn from patent US5817490A, “Enzymatic process for the manufacture of ascorbic acid 2-keto-L-gulonic acid and esters of 2-keto-L-gulonic acid” (Eastman Chemical Company, priority 1997, dated 1998).
